Results taken from publication PMC3680789.

Molecular target: T1, ScPif1 (Saccharomyces cerevisiae, UniProt P07271 40-859)
T1 sequence: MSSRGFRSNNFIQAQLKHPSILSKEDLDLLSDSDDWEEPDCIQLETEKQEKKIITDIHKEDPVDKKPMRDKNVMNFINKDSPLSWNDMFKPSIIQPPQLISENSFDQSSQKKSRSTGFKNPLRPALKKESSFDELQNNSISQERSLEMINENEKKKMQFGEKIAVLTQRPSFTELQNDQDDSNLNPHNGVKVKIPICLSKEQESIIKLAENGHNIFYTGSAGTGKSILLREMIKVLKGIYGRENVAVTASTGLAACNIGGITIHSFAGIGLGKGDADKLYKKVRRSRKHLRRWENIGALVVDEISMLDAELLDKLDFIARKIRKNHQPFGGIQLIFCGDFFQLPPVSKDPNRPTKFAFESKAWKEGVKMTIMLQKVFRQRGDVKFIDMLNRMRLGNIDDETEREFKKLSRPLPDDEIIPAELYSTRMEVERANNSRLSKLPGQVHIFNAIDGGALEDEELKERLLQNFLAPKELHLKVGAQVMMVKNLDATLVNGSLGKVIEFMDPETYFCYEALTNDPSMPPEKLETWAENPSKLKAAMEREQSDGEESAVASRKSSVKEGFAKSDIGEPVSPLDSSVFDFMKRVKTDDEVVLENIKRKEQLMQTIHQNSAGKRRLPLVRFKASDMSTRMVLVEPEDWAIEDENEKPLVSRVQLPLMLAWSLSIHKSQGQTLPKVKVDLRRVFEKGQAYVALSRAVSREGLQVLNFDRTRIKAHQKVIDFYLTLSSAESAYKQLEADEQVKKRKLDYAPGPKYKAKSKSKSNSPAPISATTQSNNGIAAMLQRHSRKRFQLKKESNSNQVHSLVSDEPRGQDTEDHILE
Experiment: filter binding

B1: non-G-rich 20-mer (NG) (ssDNA)
DNA: CAAAGGACCCTTTGTGGATC
B1 was tested, and the Kd was 200 pM.

B2: G-rich 20-mer (GR) (ssDNA)
DNA: CGGCCCGGCGGTCCGCGGTC
With B2 the Kd was 40 pM.
